Measurements from patent EP4223783A2 (dated 2023).

B1: Anti-CD-52 2C3 A114N mutant antibody (antibody, human IgG1, kappa)
heavy: not shown
light: DIVMTQTPLSLSVTPGQPASISCKSSQSLLYSNGKTYLNWLLQKPGQSPQRLIYLVSKLDSGVPDRFSGSGSGTDFTLKISRVEAEDVGVYYCVQGTHLHTFGQGTRLEIKRTVAAPSVFIFPPSDEQLKSGTASVVCLLNNFYPREAKVQWKVDNALQSGNSQESVTEQDSKDSTYSLSSTLTLSKADYEKHKVYACEVTHQGLSSPVTKSFNRGEC
modifications: additional N-linked glycan at the engineered Asn 114 (Kabat)
notes: Full-length IgG1; mutated heavy chain with the WT 2C3 light chain
B2: Anti-CD-52 2C3 NGT mutant antibody (antibody, human IgG1, kappa)
heavy: not shown
light: B1 light
notes: Full-length IgG1; NGT added to the C-terminus of the heavy chain; WT 2C3 light chain; also called Add NGT to C-terminal
B3: Anti-CD-52 2C3 S440N mutant antibody (antibody, IgG1)
heavy: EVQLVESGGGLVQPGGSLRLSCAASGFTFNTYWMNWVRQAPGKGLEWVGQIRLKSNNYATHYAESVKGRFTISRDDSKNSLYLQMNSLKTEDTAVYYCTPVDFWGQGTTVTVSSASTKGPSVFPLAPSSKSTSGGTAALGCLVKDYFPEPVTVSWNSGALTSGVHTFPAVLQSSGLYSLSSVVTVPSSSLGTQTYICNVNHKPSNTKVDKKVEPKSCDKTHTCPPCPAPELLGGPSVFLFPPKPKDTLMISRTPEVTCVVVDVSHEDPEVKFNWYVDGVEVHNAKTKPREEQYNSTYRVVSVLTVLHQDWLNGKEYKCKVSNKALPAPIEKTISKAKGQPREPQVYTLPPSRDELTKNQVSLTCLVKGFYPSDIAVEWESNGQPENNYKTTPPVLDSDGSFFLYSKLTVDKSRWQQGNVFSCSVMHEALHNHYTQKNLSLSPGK
light: B1 light
notes: as for B1
B4: Anti-CD-52 2C3 S442N mutant antibody (antibody, IgG1)
heavy: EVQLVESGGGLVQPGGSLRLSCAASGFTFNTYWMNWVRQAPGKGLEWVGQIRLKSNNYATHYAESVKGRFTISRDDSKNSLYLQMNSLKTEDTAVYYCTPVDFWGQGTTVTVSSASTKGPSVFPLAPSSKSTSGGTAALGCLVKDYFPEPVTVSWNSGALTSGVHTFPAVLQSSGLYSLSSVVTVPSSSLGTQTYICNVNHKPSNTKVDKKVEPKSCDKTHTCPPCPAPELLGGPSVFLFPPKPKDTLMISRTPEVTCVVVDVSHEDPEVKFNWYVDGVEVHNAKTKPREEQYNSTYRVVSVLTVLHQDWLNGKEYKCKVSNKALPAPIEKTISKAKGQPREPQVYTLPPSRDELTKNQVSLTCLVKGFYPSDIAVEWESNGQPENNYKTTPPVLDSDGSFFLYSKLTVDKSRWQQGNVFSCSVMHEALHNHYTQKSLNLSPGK
light: B1 light
notes: as for B1
B5: Anti-CD-52 2C3 S298N/Y300S mutant antibody (antibody, human IgG1, kappa)
heavy: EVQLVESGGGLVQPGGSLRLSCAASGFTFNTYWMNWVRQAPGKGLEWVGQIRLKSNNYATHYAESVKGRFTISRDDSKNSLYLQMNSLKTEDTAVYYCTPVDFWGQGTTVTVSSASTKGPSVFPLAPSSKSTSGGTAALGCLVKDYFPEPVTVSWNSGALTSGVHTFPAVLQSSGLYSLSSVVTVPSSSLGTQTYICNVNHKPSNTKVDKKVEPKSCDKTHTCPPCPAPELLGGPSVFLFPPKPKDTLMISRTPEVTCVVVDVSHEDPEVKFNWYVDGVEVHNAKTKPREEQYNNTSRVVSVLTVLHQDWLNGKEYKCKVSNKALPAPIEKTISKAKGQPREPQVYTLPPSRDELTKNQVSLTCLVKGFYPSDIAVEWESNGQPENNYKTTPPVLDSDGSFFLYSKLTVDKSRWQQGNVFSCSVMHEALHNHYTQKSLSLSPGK
light: B1 light
notes: Full-length IgG1; also called S298N/Y300S 2C3 variant; S298/Y300S

Target: T1, SEC-purified human FcRn-HPC4 (human, UniProt P55899 24-297; P61769 21-119)
T1 construct: Immobilized on a CM5 chip by amine coupling; also called human FcRn receptor; not shown: HPC4 tag
T1 sequence (P55899 24-297, chain 1 of 2): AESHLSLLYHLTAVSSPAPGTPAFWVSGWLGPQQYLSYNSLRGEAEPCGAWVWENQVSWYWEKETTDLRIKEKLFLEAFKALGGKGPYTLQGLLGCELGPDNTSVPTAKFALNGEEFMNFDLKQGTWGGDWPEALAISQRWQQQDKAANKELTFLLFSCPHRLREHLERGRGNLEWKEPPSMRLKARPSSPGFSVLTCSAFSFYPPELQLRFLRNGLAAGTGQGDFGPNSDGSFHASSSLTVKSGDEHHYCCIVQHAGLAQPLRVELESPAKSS
T1 sequence (P61769 21-119, chain 2 of 2): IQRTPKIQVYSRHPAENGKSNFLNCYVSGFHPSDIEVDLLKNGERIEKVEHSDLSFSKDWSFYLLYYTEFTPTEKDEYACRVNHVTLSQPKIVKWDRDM
Experiment: Biacore SPR; antibody at 200, 50 and 10nM over immobilized FcRn

| Binder | binding result |
| --- | --- |
| B1 | binds |
| B2 | binds |
| B3 | binds |
| B4 | binds |
| B5 | binds |
